# Assay results: publication PMC11784312 (2024)
# B1: 1H9 neutralizing antibody (antibody, V domains shown)
# VH: VQLQESGPGLVKPSQSLSLTCTVTGYSITSDYTWNWIRQFPGNKLEWMGYITYSDTTSYNPSLKSRISITRDTSKNQFFLQLNSVTTEDTATYYCARSDGWYGFAYWGQGTLVTVSA
# VL: DIQMNQSPSSLSASLGDTITITCHASQNINVWLSWYQQKPGNIPKLLIYKAFDLHTGVPSRFSGSGSGTGFTLTISSLQPEDIATYYCQQGQTYPFTFGGGTKLEIK
# B2: 2D7 neutralizing antibody (antibody, V domains shown)
# VH: VQLQESGPGLVKPSQSLSLTCTVTGYSITSDYTWNWIRQFPGNKLEWMGYISYSGSTSYNPSLKSRMSITRDTSKNQFLLQLNSVTTADTATYYCTRDGPYWHIDVWGAGTTVTVSS
# VL: DIQMNQSPSSLSASLGDTITITCHASQTINIWLSWYQLKPGNIPKLLIYKASNLHTGVPSRFSGSGSGTGFTLTISSLQPEDIASYYCQQGQSFPYTFGGGTKLEIK
# How the values were obtained:
# Test in all cases: ELISA
# [1] = target: hemagglutinin of A/chicken/Guangdong/SD008/2017 (H7N9) (influenza A virus …)
# [2] = target: hemagglutinin of A/pigeon/Shanghai/S1069/2013 (H7N9) (influenza A virus …)
# [3] = target: hemagglutinin of A/chicken/Yunnan/SD193/2017 (H7N9) (influenza A virus …)
# [4] = target: hemagglutinin of A/duck/Guangxi/SDY129/2014 (H7N9) (influenza A virus …)
Binder,EC50 [1] [µg/mL],EC50 [2] [µg/mL],EC50 [3] [µg/mL],EC50 [4] [µg/mL]
B1,0.0861,0.0837,0.195,0.0808
B2,0.0561,0.0857,0.0539,0.0535
